From patent US20160031999A1 (CSL, published 2016) come the findings set out here.

Where a chain is given by its changes, count along the chain named. Values joined by “and” are separate entries in the source; they are usually repeats but may differ in a detail not shown here. Equal entries are not always repeated.

Test [1] concerns the target T1, polypeptide of SEQ ID NO: 85 (amino acids 23 to 318 of human IL-11Rα, serine at position 248, 8×HIS tag) (human, UniProt Q14626 23-318).
T1 construct: also called WT D1/2; truncated hIL-11R
T1 sequence: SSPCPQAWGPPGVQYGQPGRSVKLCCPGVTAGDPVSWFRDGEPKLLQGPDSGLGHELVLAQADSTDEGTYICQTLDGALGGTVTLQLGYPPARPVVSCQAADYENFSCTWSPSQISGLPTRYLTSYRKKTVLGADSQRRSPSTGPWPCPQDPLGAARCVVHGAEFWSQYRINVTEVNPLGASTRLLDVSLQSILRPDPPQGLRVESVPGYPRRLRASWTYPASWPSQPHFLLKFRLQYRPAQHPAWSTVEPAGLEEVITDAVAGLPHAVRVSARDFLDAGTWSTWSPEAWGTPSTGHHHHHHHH
Description: Biacore, antibody captured on anti-human IgG Fc, receptor injected; N = 2, both values shown. How it is done: (§1) Various point mutants of soluble forms of IL-11R were produced in which amino acids from mIL-11 were introduced into a soluble form of hIL-11 (SEQ ID NO: 85) (see Table 5 for positions of mutations relative to SEQ ID NO: 1 and for reference to the SEQ ID NO: of each polypeptide) and the binding of antibodies to those polypeptides or to polypeptides of SEQ ID NO: 3 or SEQ ID NO: 85 was determined using Biacore analysis or FACS.
(§2) Anti human IgG Fc specific antibody was chemically immobilized on a CM5 chip to ˜9000 RU. Antibodies were captured at about 0.3-1 μg/ml for 120 seconds on 2 spots in each flow cell. Adjacent spots consisting of only anti human IgG were used as a reference. IL-11 receptors were injected over the captured antibodies and reference spots at 40, 10, 5 and 2.5 nM in duplicate. Blank injections of buffer only were also performed in duplicate. Injection was performed for 3 minutes and dissociation monitored for a further 5 minutes.

Test [2] concerns the target T2, polypeptide of SEQ ID NO: 87 (human IL-11Rα 23-215 and mouse IL-11Rα 216-367, 8×HIS tag) (human and mouse (chimera)).
T2 chain: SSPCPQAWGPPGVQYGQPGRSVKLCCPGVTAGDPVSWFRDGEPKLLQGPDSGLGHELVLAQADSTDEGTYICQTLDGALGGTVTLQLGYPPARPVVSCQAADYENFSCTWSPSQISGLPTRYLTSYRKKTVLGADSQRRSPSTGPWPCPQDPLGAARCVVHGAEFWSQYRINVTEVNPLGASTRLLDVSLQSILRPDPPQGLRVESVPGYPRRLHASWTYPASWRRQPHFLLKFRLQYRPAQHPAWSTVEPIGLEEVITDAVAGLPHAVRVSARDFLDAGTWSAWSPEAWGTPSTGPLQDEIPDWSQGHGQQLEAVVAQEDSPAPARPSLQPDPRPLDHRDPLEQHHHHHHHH
Nature of the test: Biacore, domain-swapped receptor; strong = KD of about 10 nM or lower. How it is done:
(§3) Various soluble forms of IL-11R comprising regions of hIL-11R and mIL-11R were produced and comprise sequences as set forth in SEQ ID NOs: 3 and 86-90 and the binding of antibodies 8E2, 8D10 and 8E4 to those polypeptides was determined using Western blotting or Biacore analysis.
(§4) For Biacore analysis, anti-human was IgG immobilized on the sensor surface at ˜10,000-12,000 RU and each antibody was captured at between 0.2 μg/ml and 0.5 μg/ml every cycle for 120 seconds. IL-11 receptors were injected over captured antibodies at varying concentrations, ranging from 1 μM down to 2.5 nM, including injections of buffer blanks. Association was monitored for 3-5 minutes, dissociation was monitored for 3-10 minutes. Approximate affinities were determined by fitting binding curves of each interaction to a 1:1 Kinetic Model.
Background: Surface plasmon resonance follows binding to a sensor surface in real time, without labels.

Test [3] addresses T3, polypeptide of SEQ ID NO: 88 (human IL-11Rα 23-318 and mouse IL-11Rα 319-367, 8×HIS tag) (human and mouse (chimera)).
T3 chain: T2 chain with H215R, R225P, R226S, I252A, A284T
The description is as above. How it is done:
as §3, §4

The target of test [4] is T4, V117E mutant of soluble human IL-11Rα (SEQ ID NO: 95) (human, UniProt Q14626 23-318).
T4 construct: also called V95E
T4 sequence: T1 sequence with V95E, S226C
Description: Biacore, antibody captured; * indicates undetectable binding. How it is done:
as §1, §2

Test [5] has as its target T5, K66R mutant of soluble human IL-11Rα (SEQ ID NO: 96) (human, UniProt Q14626 23-318).
T5 construct: also called K44R
T5 sequence: T1 sequence with K44R, S226C
Description: Biacore. How it is done:
as §2
The K66R mutation led to a decrease in KD of just over twofold when compared to WT D1/2 (SEQ ID NO: 85) for antibodies 8E2 and 8D10, indicating some involvement of this residue in antibody binding.

For test [6], the target named is T4, V117E mutant of soluble human IL-11Rα …. Nature of the test: Biacore, antibody captured on anti-human IgG Fc, receptor injected; mean ± SE, N = 4. How it is done:
as §1, §2

B1: antibody 8D10 (antibody, human IgG4 S228P, kappa, V domains shown)
VH: EVQLLESGGGLVQPGGSLRLSCAASGFTFSRYMMGWVRQAPGKGLEWVSSIVPSGGITIYADSVKGRFTISRDNSKNTLYLQMNSLRAEDTAVYYCARDHMGIVATDWGQGTLVTVSS
VL: DIQMTQSPSSLSASVGDRVTITCQASQDITNYLNWYLHKPGKAPKLLIYDASNLQTGVPSRFSGSGSGTDFTFTITSLQPEDFGTYYCQQYDTLHPSFGPGTTVDIKR
By Kd is commonly meant a measure of binding affinity in units of concentration. Read a high Kd as weaker binding. In the case of B1, the Kd in test [1] was 0.57 nM and 0.69 nM. The values for the binding result in test [2], in test [3] and in test [4] were “binds”, “binds” and “no binding”, respectively. The “fold change in KD compared to WT D1/2 (SEQ ID NO: 85)” value in test [5] was above 2 fold.

B2: antibody 8E4 (antibody, human IgG4 S228P, lambda, V domains shown)
VH: EVQLLESGGGLVQPGGSLRLSCAASGFTFSWYFMGWVRQAPGKGLEWVSYIYPSGGSTGYADSVKGRFTISRDNSKNTLYLQMHSLRAEDTAVYYCARDEGYCSSTSCYFDAFDIWGQGTMVTVSS
VL: QSALTQPPSASGSPGQSVAISCTGTSSDVGGYNFVSWYQQHPGKAPKLLIYEVTKRPSGVPDRFSGSKAGNTASLTVSGLQAEDEADYYCSSYGGSNNAGVFGTGTKVTVLG
As to B2, the dissociation constant Kd is 3.2 nM and 3.7 nM in test [1]; 5.54 nM in test [6]. Also, the binding result in test [2] and in test [3] was “binds” throughout.
